For the data set, the target named is HIV-1 reverse transcriptase (HIV-RT) (HIV-1, UniProt P04585;P04585 P04585:588-1147,P04585:588-1027). As to the kind of experiment: footprint; chemical modification protection and modification interference; 200 mM KOAc, 50 mM Tris-HCl pH 7.7, 37 C. To be noted: pseudoknot. How it is done:
Affinity assays with labeled RNA and HIV-RT. Model RNAs for refinement of the 5' and 3' boundaries and for determination of the effect of substitutions were labeled during transcription with T7 RNA polymerase as described in Tuerk et al. (1990) except that a-32P-ATP was used, in reactions of 0.5 mM C,G, and UTP with 0.05 mM ATP. Synthetic oligonucleotides and phosphatased transcripts (as in Tuerk et al., 1990) were kinased as described in Gauss et al. (1987). All RNA-protein binding reactions were done in a "binding buffer" of 200 mM KOAc, 50 mM Tris-HCl pH 7.7, 10 mM dithiothreitol with exceptions noted for chemical protection experiments below. RNA and protein dilutions were mixed and stored on ice for 30 minutes then transferred to 37° C. for 5 minutes. […] Each reaction was suctioned through a pre-wet (with binding buffer) nitrocellulose filter and rinsed with 3 mls of binding buffer after which it was dried and counted for assays or subjected to elution and assayed for chemical modification. In comparisons of binding affinity, results were plotted and the protein concentration at which half-maximal binding occurred (the approximate Kd in conditions of protein excess) was determined graphically.
Selection of modified RNAs by HIV-RT. […] The extent of modification interference by ENU was determined by densitometric scanning of films using an LKB laser densitomer.

The values below come from patent publication US5595877, “Methods of producing nucleic acid ligands” (NeXstar Pharmaceuticals, Inc.).

B1: lengthened ligand B RNA (ssRNA)
RNA: GGUCCGAAGUGCAACGGGAAAAUGCACUAUGAAAGAAUUUUAUAUCUCUAUUGAAAC
Turning to B1, the binding result is “binds”.
